Laboratory results taken from publication PMC4248295.

Target: T1, MSL2 CXC domain (Drosophila melanogaster, UniProt P50534 520-570, C560G)
T1 sequence: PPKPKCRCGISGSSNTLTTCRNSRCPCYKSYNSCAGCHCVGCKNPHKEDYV
Assay: crystal structure

B1: (GC)6 (12 bp) (dsDNA)
DNA 1: GCGCGCGCGCGC
DNA 2: GCGCGCGCGCGC
B1: binds.
